Assay results as given in patent publication US20150268247A1, “Assay for Screening of Anti-Viral Compounds That Inhibit Specific Interaction Interfaces Between Cullin5 and an ElonginB/ElonginC/ CBF-beta/HIV-1 Vif Complex” (UNIVERSITY OF ROCHESTER, priority 2012, published 2015).

Experiments:
[1] = molecular target: T1, Vif/EloB/C/CBFβ quaternary complex (full-length HIV-1 HXB2 Vif(1-192) / ElonginB 1-118 / ElonginC 17 (HIV-1 HXB2; human), P69720; test: fluorescence anisotropy, complex titrated into 25 nM 5-FAM peptide; Sd ± 0.1
[2] = molecular target: T1, Vif/EloB/C/CBFβ quaternary complex …; test: fluorescence anisotropy, complex titrated into 25 nM 5-FAM peptide; Sd ± 4.2
[3] = molecular target: T1, Vif/EloB/C/CBFβ quaternary complex …; test: fluorescence anisotropy, complex titrated into 25 nM 5-FAM peptide; Sd ± 7.0
[4] = molecular target: T1, Vif/EloB/C/CBFβ quaternary complex …; test: fluorescence anisotropy, complex titrated into 25 nM 5-FAM peptide; Sd ± 1.0

## LFSDVHAVCLWD (modifications not checked) [Cul5(43-54) peptide]
[1]
  Kd: 2.5 µM

## KQQWFDLFSDVHAVCLW (modifications not checked) [Cul5(37-53) peptide]
[1]
  Kd: 1.2 µM

## KQQWFDLFSDVH (modifications not checked) [Cul5(37-48) peptide]
[2]
  Kd: 15.6 µM

## LRQESVTKQQW (modifications not checked) [Cul5(30-40) peptide]
[3]
  Kd: 16 µM

## LFSDVHAVCLWDDKGPAKIHQAL (modifications not checked) [Cul5(43-65) peptide]
[4]
  Kd: 4.7 µM
